# T1: fibrin clot polymerization (Homo sapiens, UniProt P02671+P02675+P02679)
# T1 sequence (P02671 36-866 limits assumed): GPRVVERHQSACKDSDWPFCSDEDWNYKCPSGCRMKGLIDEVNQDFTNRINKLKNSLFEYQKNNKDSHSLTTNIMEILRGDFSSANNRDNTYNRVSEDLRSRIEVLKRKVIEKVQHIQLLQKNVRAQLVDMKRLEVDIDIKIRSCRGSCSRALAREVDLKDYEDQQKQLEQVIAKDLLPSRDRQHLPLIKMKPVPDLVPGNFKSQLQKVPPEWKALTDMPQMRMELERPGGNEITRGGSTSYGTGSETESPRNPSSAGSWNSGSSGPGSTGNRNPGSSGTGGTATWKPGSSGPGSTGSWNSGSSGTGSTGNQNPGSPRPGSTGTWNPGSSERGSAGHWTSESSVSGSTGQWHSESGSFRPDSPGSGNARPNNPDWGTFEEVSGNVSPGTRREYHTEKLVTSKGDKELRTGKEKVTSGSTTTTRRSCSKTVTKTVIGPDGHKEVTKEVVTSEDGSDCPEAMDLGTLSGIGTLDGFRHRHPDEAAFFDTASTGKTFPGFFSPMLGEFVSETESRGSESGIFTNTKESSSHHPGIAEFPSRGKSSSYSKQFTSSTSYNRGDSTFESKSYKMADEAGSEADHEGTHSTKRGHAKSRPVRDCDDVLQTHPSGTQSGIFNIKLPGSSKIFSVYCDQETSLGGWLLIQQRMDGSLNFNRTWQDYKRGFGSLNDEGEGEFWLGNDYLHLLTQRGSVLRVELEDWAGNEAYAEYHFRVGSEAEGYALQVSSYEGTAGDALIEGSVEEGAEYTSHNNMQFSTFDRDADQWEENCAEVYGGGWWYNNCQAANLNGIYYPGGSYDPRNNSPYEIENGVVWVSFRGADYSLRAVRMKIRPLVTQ
# T1 sequence (P02675 45-491 limits assumed): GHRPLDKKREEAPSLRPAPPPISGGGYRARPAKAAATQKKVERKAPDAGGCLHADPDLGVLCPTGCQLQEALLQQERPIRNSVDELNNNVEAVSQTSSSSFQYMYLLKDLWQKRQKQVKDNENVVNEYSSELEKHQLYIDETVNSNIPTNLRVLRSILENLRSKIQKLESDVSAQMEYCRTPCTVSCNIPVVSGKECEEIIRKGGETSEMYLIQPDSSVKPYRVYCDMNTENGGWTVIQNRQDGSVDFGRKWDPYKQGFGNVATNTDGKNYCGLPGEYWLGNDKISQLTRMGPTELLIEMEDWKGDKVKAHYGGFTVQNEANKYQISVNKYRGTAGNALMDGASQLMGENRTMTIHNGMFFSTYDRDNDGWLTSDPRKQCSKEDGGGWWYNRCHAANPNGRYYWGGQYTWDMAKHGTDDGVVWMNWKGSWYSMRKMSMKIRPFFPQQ
# T1 sequence (P02679 27-453): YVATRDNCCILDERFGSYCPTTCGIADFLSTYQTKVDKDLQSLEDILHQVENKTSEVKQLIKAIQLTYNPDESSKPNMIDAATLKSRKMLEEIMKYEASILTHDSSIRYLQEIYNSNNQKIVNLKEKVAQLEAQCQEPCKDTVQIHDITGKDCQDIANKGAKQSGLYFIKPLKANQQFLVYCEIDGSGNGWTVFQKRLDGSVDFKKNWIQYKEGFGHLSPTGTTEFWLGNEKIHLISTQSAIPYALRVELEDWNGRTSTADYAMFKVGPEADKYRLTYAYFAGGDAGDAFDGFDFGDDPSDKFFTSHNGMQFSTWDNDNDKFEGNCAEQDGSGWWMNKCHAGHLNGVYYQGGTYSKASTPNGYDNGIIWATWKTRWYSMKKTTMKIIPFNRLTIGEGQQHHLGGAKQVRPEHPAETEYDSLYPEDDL
# B1: H6: fibrin-specific human sdFv clone from phage biopanning, SEQ ID NO: 1 (protein)
# VHH: QVQLLESGGGLVQPGGSLRLSCAASGDRFTHNDMGWVRQAPGKGLEWVSTIPTTDGSTYYADSVKGRFTISRDNSKSTLYLQMNSLRAEDTAVYYCATGYMWKAPAYVKYWGQGTLVTVSSAAAEQKLISEEDLNSAAHYTDIG
# Target: T1, fibrin clot polymerization
# Assay: Turbidity assay of fibrin clot polymerization
# Format: biochemical
# Method: H6 interference with fibrin clot polymerization was determined through turbidity and clottability assays. The turbidity assay involved polymerizing physiological fibrin clots (2 mg/mL) in wells of a 96-well plate while taking absorbance measurements at 350 nm every 30 seconds. An increase in absorbance correlates to an increase in clot “cloudiness” which, in turn, indicates gelation. Turbidity of standard fibrin clots was compared to that of clots exposed to varying molar concentrations ranging from 1:1 to 1:1000 molar ratios of nanobody to fibrinogen.
molecule,measurement,setting,value
B1,turbidity versus fibrin controls,all other molar ratios,indistinguishable from physiological fibrin controls
same,turbidity versus fibrin controls,"molar ratio to fibrinogen 1:1, differences not significant",notable difference in turbidity readings
